Measurements from the supplement of paper PMC9170038.

System: MS2 coat protein
Assay: apparent KD of MS2 coat protein; designed switch direction (-1 OFF switch, 1 ON switch): 1; higher = weaker reporter binding
Outline: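 An oligonucleotide input, 200 uM small-molecule ligand, or no input was present during titration of SNAP-549-labelled MS2 coat protein, which was doubled from 0.7 or 1.5 nM to 3 µM. Designed RNA switches had been transcribed on Illumina chips by stalled E. coli RNA polymerase. Apparent KD per design is the median over clusters of curves fitted to normalised cluster fluorescence.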

[1] = Eterna round: R95, input ligand: microRNA oligo, concentration not stated
[2] = input ligand: microRNA oligo, concentration not stated
[3] = Eterna round: R95, input ligand: FMN 200 uM
[4] = Eterna round: R95, input ligand: none

Sequence	apparent KD of MS2 coat protein [1] [nM]	apparent KD of MS2 coat protein (input ligand: FMN 200 uM) [nM]	apparent KD of MS2 coat protein [2] [nM]	apparent KD of MS2 coat protein (input ligand: none) [nM]	apparent KD of MS2 coat protein [3] [nM]	apparent KD of MS2 coat protein [4] [nM]
GUACUACAUGAGGAUCACCCAUGUACAAAGGUACGAGGAUAUGCAUGUACGAAAGUAUAUGCAGAAGGCGUAGUAC [Pin2Pin #2] (puzzle: Same State 1)	23.3	–	–	–	–	–
GUAGCAUACCGAGGAUAUUCAUAUUAACAUGAGGAUCACCCAUGUUUAGGUCGAUUACGACCUUGGGAGAAGGCGGAAUGCUAC [Xeonanis - 20 Mod33] (Eterna round: R96, puzzle: Same State NG 2)	–	12.3	15.4	25.5	–	–
GUAGCAUACCGAGGAUAUUCAUAUUAUACAUGAGGAUCACCCAUGUGGCCACAUUAGUGGCCUUGGGAGAAGGCGGAAUGCUAC [Xeonanis - 20 Mod37] (Eterna round: R96, puzzle: Same State NG 2)	–	99.2	290	669	–	–
GUAGUACAUGAGGAUCACCCAUGUUUCCUCCAAGAGUUCUUCGAGGAUAUGUCAUGGAAUCCACAAUAGAAGGCGGAGAACCAA [Eternabot solution 39] (Eterna round: R96, puzzle: Same State NG 3)	–	403	526	462	–	–
GUGCGAGUGCCACAGGAUAUACGUGGAUCGACAUGAGGAUCACCCAUGUAUAUCCUAAUAAUUGCGUAGAAGGGUGGUCAGUCGG [Inzage] (Eterna round: R96, puzzle: Same State 2)	–	164	313	478	–	–
GUGCGAGUGCCACAGGAUAUACGUGGAUCGACAUGAGGAUCACCCAUGUAUAUCCUAAUAAUUGCGUAGAAGGGUGGUCAGUCGG [Inzage] (puzzle: Same State 2)	74.8	–	–	–	136	105
GUGGUCAAUCAAGGAUAUGGAGCCUUAUUGGCUCCAGAAGGUGGGACAUGAGGAUCACCCAUGUGGCAGUGGUAAAAUGACCAC [Fiskers NG1ss - 37] (Eterna round: R96, puzzle: Same State NG 1)	–	35.6	56.8	63.4	–	–
GUGGUCAGACAUGAGGAUCACCCAUGUGGAAUAAAUAACACAGAGGAUAUGGAAUAUAAAAUAUACCAGAAGGCUGGAUUGGUG (Eterna round: R96, puzzle: Same State NG 3)	–	131	188	268	–	–
GUGGUCAGACAUGAGGAUCACCCAUGUGGAAUAAAUAACAGACAGGAUAUCAAAUAUAGGAUAUAUGAGAAGGGUCGAUUGGUG (Eterna round: R96, puzzle: Same State NG 3)	–	–	81	–	–	–
GUUAAACAUGAGGAUCACCCAUGUAAUAAUAUGGGAGGAUAUGGGAAUUAAUUAAUUAAACCAGAAGGCCUAAUUG [Mat - Same State 1 - D84] (puzzle: Same State 1)	142	–	–	–	25.3	189
GUUACAUGAGGAUCACCCAUGUAUGUGUGGGAGUAAGUGUCUUAGGAUAUCUAUCAUUGAAUUUAAGAGAAGGAAGAUUGUUGU [JMF's solution 92] (Eterna round: R96, puzzle: Same State NG 3)	–	–	81.3	–	–	–
GUUACAUGAGGAUCACCCAUGUAUGUGUGGGAGUAAGUGUCUUAGGAUAUCUAUGAUUUAAUUGAAGAGAAGGAAGAUUGUUGU [JMF's solution 84] (Eterna round: R96, puzzle: Same State NG 3)	–	–	99.1	–	–	–
GUUACAUGAGGAUCACCCAUGUAUGUGUGGGAGUAAGUGUCUUAGGAUAUCUAUGAUUUAGUUUAAGAGAAGGAAGAUUGUUGU [JMF's solution 79] (Eterna round: R96, puzzle: Same State NG 3)	–	117	86.3	111	–	–
GUUACAUGAGGAUCACCCAUGUAUGUGUGGGAGUAAGUGUCUUAGGAUAUCUAUUAUUUAAUUUUAGAGAAGGAAGAUUGUUGU [JMF's solution 27] (Eterna round: R96, puzzle: Same State NG 3)	–	138	105	120	–	–
GUUACAUGAGGAUCACCCAUGUAUGUGUGGGAGUAAGUGUCUUAGGAUAUCUGUUAUUUAAGUUAAGAGAAGGAAGAUUGUUGU [JMF's solution 42] (Eterna round: R96, puzzle: Same State NG 3)	–	92.8	45.6	82.4	–	–
GUUAUACAUGAGGAUCACCCAUGUCAAUGUAGUCGAGGAUAUGGGCAGCUAUGAGGCGUACUAGAAGGCGAAGAGU [JL-ss1-3.12 ViennaUCT mod] (puzzle: Same State 1)	374	–	–	–	164	309

Sequence	apparent KD of MS2 coat protein [1] [nM]	apparent KD of MS2 coat protein (input ligand: FMN 200 uM) [nM]	apparent KD of MS2 coat protein [2] [nM]	apparent KD of MS2 coat protein (input ligand: none) [nM]	apparent KD of MS2 coat protein [3] [nM]	apparent KD of MS2 coat protein [4] [nM]
UAAAGAUCGCGAGGAUAUCGCGAGGAUCACCCGUGAGAAGGCGCAGAGCCGAGGAUCACCCGGCUGAUCCUGAGGAGGAGGUAA (Eterna round: R96, puzzle: Same State NG 1)	–	249	410	556	–	–
UAAAUAAAGUAAGGAUAUACAUGAGGAUCUCUCGUAGAAGGUACUAUACAUGAGGAUCACCCAUGUGCCGGUCCGUAGACUGGA [Mat - Same State NG 1 - JL mod - D8] (Eterna round: R96, puzzle: Same State NG 1)	–	475	107	68.8	–	–
UACAAUCUAUCUGAGGAUAUCAUGAAGAAAACAUGAGGAUCACCCAUGUGCAGGAGAACUGCAAAUGAGAAGGCAGAUAGAUUGU [Mat - Same State 2 - Mod - D1] (puzzle: Same State 2)	12.9	–	–	–	9.46	13.4
UAGACAAGCUUUAUGUUCUUCCUAUUCCAACAUGAGGAUCACCCAUGUAGUCUGUCGAUUGUGAGUGUAGUUGAGAU [JR_SHM208A_Sub026] (puzzle: Sensor for hsa-mir-208a)	52	–	–	–	57.8	61.9
UAGGGACAUGAGGAUCACCCAUGUGCCUCAUAUGGAGAAACUCAGGAUAUGCUGAGGAUCACCCGGCAGAAGGGAGAUUUGAGG (Eterna round: R96, puzzle: Same State NG 3)	–	42.3	26.3	36.4	–	–
UAGGUUGAGCAAGGAUAUCCAAGAUUGAUUCGUAUCGACAUGAGGAUCACCCAUGUCCCGAGAAGGGAGAAGGUGCGUCCAACC [Eternabot solution 30] (Eterna round: R96, puzzle: Same State NG 2)	–	15.4	27.9	42.3	–	–
UAGUGAUUGCAAGGAUAUGCUAGUUUUUAUUUGUGUUUGAUAUCUAACAUGAGGAUCACCCAUGUGCAGAAGGUGCUUGAUUUG [JR_SSNG2_Sub077] (Eterna round: R96, puzzle: Same State NG 2)	–	–	68.6	–	–	–
UAGUGUUUGCGAGGAUAUCGUUUGUUGAAGUUACGAGAAGGCGCUCUAAUUACAUGAGGAUCACCCAUGUCUGUGAUGCAUGAU [JR_SSNG1_Sub070] (Eterna round: R96, puzzle: Same State NG 1)	–	65.2	56.3	70	–	–
UAUGAAUUACAAGGAUAUUAAUAACAUGAGGAUCACCCAUGUGGCUGUGAGAGUUAGAUAAGCUAUAAGAAGGUGUGUGUGUUU [JR_SSNG2_Sub093] (Eterna round: R96, puzzle: Same State NG 2)	–	93.1	196	267	–	–
UAUUUAAUCAUAGGAUAUAGUGUGAAAUUUGGACUAGAAGGAUGUAACAUGAGGAUCACCCAUGUGGUAAGUGGGACACAUUGA [JR_SSNG1_Sub097] (Eterna round: R96, puzzle: Same State NG 1)	–	–	86.7	–	–	–
UCAAGCGAGAGGCUCGUCUUAUGUUUGGUACAUGAGGAUCACCCAUGUUAGGGACGAUUUAGUUAGAUGGAAUGGAG [JR_SHM208A_Sub034] (puzzle: Sensor for hsa-mir-208a)	148	–	–	–	57.3	69.6
UCAGUCAUGUAAGGAUAUGCAGCCGAAACGGCUGCAGAAGGUACUAUAAUUACAUGAGGAUCACCCAUGUUAUAAAAUAAAUAU [Mat - Same State NG 1 - JL mod - D65] (Eterna round: R96, puzzle: Same State NG 1)	–	18.4	36	76.6	–	–
UCGGGCGUACUUGCUGACAUGAGGAUCACCCAUGUCCUUGGGCAGGAUAUGGUUCCGUUUCGGUUCCAGAAGGUCCUGGCUGCU [salish99_SSNG3_r04_318] (Eterna round: R96, puzzle: Same State NG 3)	–	18.1	24.4	25.5	–	–
UCUUGGUUUUUGCUCGUUUUUUGUGUUGAACAUGAGGAUCACCCAUGUAUUGUACAGUCCGAUUUAAUAAUGGUCCG [JMF 57] (puzzle: Sensor for hsa-mir-208a)	26	–	–	–	31.5	33.8
UCUUGGUUUUUGCUCGUUUUUUGUGUUGAACAUGAGGAUCACCCAUGUAUUGUACGAUCCGGUUUAGUGAUGGUCCG [JMF 63] (puzzle: Sensor for hsa-mir-208a)	27.7	–	–	–	40.8	42.1
UCUUGGUUUUUGCUCGUUUUUUGUGUUGAACAUGAGGAUCACCCAUGUAUUGUACGGUCCAAUUUAAUAAUAGUCCA [JMF 75] (puzzle: Sensor for hsa-mir-208a)	52.8	–	–	–	62.3	75.5
